Assays:
Test in all cases: affinity purification with mass spectrometry; purified GST-VHH fusion protein as bait with lysate of immature chicken bone marrow DCs (day 6); in vitro pull-down, then HPLC-MS (done by ZoonBio Biotechnology)
Conditions in all cases: one partner purified
[1] = target: T1, Glutathione S-transferase (Gallus gallus (SPF chick), UniProt Q08392)
T1 construct: Glutathione S-transferase, Gallus gallus; no gene name printed; source: endogenous, chicken bone marrow DC lysate

[2] = target: T2, Uncharacterized protein GN = ZBTB26 (Gallus gallus, UniProt A0A1D5NTV7)
T2 construct: Uncharacterized protein, Gallus gallus, GN = ZBTB26; source: endogenous, chicken bone marrow DC lysate

[3] = target: T3, Uncharacterized protein GN = ERCC5 (Gallus gallus (SPF chick), UniProt F1P266)
T3 construct: Uncharacterized protein, Gallus gallus, GN = ERCC5; source: endogenous, chicken bone marrow DC lysate

[4] = target: T4, BTB domain-containing protein (Gallus gallus, UniProt A0A1D5NYT7)
T4 construct: BTB domain-containing protein, Gallus gallus, GN = KLHL26; also called KLHL26; source: endogenous, chicken bone marrow DC lysate

[5] = target: T5, SET domain-containing protein (Gallus gallus, UniProt A0A1D5PNH9)
T5 construct: SET domain-containing protein, Gallus gallus, GN = PRDM11; also called PRDM11; source: endogenous, chicken bone marrow DC lysate

[6] = target: T6, E3 ubiquitin-protein ligase TRIM71 (Gallus gallus (SPF chick), UniProt Q1PRL4)
T6 construct: E3 ubiquitin-protein ligase TRIM71, Gallus gallus, GN = TRIM71; source: endogenous, chicken bone marrow DC lysate

[7] = target: T7, Protein disulfide-isomerase (Gallus gallus (SPF chick), UniProt P09102)
T7 construct: Protein disulfide-isomerase, Gallus gallus, GN = P4HB; also called P4HB; source: endogenous, chicken bone marrow DC lysate

[8] = target: T8, Uncharacterized protein GN = LCP1 (Gallus gallus (SPF chick), UniProt Q5ZLW0)
T8 construct: Uncharacterized protein, Gallus gallus, GN = LCP1; source: endogenous, chicken bone marrow DC lysate

Calreticulin = target: T9, Calreticulin (Gallus gallus, UniProt A0A8V0X980)
T9 construct: Calreticulin, Gallus gallus, GN = CALR; source: endogenous, chicken bone marrow DC lysate

[9] = target: T10, Extracellular serine/threonine protein kinase FAM20C isoform X1 (Gallus gallus, UniProt A0A3G2WC03)
T10 construct: Extracellular serine/threonine protein kinase FAM20C isoform X1, Gallus gallus; no GN field printed, the symbol stands in the name; source: endogenous, chicken bone marrow DC lysate

[10] = target: T11, RanGAP1_C domain-containing protein (Gallus gallus, UniProt A0A8V0YG17)
T11 construct: RanGAP1_C domain-containing protein, Gallus gallus, GN = RANGAP1; source: endogenous, chicken bone marrow DC lysate

[11] = target: T12, Collagen alpha-2(VI) chain (Gallus gallus (SPF chick), UniProt P15988)
T12 construct: Collagen alpha-2(VI) chain, Gallus gallus, GN = COL6A2; also called COL6A2; source: endogenous, chicken bone marrow DC lysate

[12] = target: T13, UBX domain-containing protein 2B (Gallus gallus, UniProt A0A1D5P1A7)
T13 construct: UBX domain-containing protein 2B, Gallus gallus, GN = UBXN2B; also called UBXN2B; source: endogenous, chicken bone marrow DC lysate

[13] = target: T14, RING-type E3 ubiquitin transferase (Gallus gallus (endogenous, immature …, UniProt A0A8V0YPN2))
T14 construct: RING-type E3 ubiquitin transferase, Gallus gallus, GN = UHRF2; also called UHRF2; source: endogenous, chicken bone marrow DC lysate

[14] = target: T15, Voltage-dependent anion-selective channel protein 1 (Gallus gallus, UniProt E1BYN7)
T15 construct: Voltage-dependent anion-selective channel protein 1, Gallus gallus, GN = VDAC1; also called VDAC1; VDAC; source: endogenous, chicken bone marrow DC lysate

[15] = target: T16, zf-C2H2_7 domain-containing protein (Gallus gallus (SPF chick), UniProt A0A8V0Z1I9)
T16 construct: zf-C2H2_7 domain-containing protein, Gallus gallus, GN = PRR35; also called PRR35; source: endogenous, chicken bone marrow DC lysate

[16] = target: T17, Uncharacterized protein GN = GPC2 (Gallus gallus (SPF chick), UniProt A0A8V0ZXK1)
T17 construct: Uncharacterized protein, Gallus gallus, GN = GPC2; source: endogenous, chicken bone marrow DC lysate

[17] = target: T18, Uncharacterized protein GN = RAP1A (Gallus gallus (SPF chick), UniProt F1NSA8)
T18 construct: Uncharacterized protein, Gallus gallus, GN = RAP1A; source: endogenous, chicken bone marrow DC lysate

Measured: binding result

T4 sequence (A0A1D5NYT7 entry or part of it): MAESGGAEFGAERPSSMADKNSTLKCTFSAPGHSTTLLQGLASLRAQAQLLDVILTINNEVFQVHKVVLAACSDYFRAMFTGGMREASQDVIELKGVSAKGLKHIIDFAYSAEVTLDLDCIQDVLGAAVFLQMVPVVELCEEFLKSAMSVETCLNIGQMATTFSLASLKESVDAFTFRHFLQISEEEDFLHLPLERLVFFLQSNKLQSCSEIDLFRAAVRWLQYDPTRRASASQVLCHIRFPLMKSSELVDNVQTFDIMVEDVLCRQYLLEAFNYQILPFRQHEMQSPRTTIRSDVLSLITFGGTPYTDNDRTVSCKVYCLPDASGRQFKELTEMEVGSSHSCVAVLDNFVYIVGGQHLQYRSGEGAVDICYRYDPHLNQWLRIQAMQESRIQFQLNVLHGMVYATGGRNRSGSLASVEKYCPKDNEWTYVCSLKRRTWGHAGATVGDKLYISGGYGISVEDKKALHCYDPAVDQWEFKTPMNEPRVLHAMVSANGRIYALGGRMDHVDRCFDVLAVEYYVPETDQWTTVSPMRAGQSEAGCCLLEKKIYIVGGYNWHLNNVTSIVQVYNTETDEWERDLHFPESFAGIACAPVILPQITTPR
T6 sequence (Q1PRL4 whole entry): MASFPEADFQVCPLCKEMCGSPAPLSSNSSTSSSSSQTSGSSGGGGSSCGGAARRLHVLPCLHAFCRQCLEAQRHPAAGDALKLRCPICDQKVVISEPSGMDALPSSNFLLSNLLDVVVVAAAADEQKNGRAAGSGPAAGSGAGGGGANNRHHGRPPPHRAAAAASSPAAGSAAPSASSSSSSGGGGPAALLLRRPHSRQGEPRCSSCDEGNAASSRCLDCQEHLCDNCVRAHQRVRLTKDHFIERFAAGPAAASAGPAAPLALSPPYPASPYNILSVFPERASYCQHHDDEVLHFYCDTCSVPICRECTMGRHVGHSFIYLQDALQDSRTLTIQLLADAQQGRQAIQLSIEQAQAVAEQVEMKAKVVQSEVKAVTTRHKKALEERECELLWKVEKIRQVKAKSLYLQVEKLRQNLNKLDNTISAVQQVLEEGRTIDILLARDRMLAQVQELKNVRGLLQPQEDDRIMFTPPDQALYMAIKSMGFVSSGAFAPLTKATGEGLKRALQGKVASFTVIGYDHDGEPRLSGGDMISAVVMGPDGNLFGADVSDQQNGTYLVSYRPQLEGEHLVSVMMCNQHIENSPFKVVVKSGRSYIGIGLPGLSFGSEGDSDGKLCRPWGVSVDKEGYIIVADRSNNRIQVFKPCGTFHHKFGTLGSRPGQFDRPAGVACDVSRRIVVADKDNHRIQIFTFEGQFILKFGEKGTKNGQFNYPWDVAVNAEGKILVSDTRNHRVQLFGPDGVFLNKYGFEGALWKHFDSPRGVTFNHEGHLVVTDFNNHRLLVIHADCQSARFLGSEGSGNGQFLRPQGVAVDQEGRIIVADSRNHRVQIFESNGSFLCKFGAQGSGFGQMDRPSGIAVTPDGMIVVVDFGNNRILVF
T1 sequence (Q08392 whole entry): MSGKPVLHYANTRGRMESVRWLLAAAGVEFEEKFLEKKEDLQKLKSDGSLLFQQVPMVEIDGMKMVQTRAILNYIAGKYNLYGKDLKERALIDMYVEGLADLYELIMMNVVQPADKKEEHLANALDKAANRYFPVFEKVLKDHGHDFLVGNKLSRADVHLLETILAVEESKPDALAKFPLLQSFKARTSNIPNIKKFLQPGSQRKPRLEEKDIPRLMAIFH
T5 sequence (A0A1D5PNH9 entry or part of it): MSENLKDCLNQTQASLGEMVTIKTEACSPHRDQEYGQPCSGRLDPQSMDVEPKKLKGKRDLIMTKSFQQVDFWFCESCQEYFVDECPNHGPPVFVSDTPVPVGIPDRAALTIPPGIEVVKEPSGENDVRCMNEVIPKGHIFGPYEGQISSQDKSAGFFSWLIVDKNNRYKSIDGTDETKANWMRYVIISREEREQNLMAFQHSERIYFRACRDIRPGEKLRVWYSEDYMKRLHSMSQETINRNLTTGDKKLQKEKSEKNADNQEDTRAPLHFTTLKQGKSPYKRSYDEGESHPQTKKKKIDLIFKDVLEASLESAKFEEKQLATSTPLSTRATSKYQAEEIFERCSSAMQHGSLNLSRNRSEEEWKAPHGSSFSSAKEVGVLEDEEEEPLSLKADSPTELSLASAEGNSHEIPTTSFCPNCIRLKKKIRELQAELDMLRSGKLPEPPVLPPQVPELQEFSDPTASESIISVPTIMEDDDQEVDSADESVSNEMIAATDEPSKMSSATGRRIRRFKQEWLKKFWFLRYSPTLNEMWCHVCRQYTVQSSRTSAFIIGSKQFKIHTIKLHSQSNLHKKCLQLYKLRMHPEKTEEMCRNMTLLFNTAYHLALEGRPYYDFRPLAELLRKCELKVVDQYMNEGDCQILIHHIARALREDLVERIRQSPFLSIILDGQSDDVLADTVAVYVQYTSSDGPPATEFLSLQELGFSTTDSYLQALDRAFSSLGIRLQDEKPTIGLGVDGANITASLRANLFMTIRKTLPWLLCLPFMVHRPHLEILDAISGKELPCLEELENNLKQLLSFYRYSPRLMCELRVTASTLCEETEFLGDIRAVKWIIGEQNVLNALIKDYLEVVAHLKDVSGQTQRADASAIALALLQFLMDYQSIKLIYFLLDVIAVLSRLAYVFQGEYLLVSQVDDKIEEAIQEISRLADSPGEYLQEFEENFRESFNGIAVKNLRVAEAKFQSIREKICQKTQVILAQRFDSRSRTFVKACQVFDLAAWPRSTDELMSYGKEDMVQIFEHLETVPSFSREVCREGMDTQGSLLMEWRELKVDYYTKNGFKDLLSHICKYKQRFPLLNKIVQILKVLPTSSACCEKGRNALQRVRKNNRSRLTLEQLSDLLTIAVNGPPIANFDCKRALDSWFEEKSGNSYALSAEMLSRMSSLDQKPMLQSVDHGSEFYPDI
T18 sequence (F1NSA8 entry or part of it): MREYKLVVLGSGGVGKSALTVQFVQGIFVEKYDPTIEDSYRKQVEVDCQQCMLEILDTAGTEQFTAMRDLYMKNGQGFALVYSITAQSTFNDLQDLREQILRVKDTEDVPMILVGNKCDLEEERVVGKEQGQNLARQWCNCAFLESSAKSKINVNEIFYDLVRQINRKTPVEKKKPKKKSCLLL
T13 sequence (Q5ZLK2 whole entry, the tested form may be a part): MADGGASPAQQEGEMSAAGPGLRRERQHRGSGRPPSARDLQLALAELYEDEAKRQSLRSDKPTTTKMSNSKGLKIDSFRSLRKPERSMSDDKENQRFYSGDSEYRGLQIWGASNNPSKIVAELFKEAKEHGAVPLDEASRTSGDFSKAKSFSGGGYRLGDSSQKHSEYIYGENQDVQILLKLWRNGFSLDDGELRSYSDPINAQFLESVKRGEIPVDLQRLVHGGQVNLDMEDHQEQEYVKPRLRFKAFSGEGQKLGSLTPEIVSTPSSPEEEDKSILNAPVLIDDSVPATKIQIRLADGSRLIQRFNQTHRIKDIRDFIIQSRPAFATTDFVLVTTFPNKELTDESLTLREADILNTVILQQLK
T2 sequence (A0A1D5NTV7 entry or part of it): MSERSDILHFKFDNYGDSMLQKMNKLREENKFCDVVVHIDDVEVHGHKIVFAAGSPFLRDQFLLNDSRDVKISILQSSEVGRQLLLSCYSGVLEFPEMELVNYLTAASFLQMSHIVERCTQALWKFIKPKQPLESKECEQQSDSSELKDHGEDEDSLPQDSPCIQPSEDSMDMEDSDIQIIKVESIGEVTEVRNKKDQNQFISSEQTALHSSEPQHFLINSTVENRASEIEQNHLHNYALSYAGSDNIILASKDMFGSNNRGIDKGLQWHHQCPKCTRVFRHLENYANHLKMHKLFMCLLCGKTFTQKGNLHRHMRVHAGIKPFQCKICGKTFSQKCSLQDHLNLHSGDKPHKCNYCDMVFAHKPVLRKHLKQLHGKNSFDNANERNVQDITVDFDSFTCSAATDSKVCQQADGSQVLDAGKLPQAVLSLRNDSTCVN
T3 sequence (F1P266 entry or part of it): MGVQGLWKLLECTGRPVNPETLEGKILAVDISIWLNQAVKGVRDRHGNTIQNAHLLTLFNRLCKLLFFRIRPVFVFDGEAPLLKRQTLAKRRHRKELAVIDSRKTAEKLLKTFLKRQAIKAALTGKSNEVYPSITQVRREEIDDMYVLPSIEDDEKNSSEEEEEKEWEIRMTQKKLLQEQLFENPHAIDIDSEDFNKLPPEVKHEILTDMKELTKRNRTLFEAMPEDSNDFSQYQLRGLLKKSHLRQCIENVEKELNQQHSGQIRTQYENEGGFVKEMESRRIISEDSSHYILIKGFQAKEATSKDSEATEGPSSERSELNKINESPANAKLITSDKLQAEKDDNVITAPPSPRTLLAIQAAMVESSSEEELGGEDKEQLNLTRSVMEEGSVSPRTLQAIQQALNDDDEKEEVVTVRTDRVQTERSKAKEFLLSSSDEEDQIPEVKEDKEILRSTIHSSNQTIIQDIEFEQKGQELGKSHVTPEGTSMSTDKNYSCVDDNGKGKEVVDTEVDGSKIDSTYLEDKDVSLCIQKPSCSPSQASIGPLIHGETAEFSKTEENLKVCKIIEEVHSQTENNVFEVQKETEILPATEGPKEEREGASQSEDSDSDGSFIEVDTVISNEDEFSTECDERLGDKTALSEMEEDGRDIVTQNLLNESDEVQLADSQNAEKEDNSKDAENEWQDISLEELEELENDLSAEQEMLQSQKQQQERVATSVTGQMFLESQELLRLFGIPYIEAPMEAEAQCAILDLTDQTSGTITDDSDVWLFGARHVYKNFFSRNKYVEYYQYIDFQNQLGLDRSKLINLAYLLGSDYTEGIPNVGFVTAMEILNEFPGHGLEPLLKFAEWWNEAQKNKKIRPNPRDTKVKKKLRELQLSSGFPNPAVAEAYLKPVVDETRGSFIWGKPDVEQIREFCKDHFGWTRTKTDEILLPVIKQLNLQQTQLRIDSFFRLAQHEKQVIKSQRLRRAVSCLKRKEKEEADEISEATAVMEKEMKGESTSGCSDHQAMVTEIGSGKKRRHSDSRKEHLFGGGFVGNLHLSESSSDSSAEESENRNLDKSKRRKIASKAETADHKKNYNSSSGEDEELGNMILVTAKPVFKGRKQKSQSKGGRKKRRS

B1: GST-VHH-54 (VHH)
VHH: QVQLVESGGGLVQPGGSLTLSCAASGFTFSKYPMTWVRQAPGKGLEWVSTITSGGTTTYADSVKGRFTISRDNAKDTLYLQMNSLKPEDTAIYYCAELGLPPGGQGTQVTVSS
notes: VHH from a non-immunised alpaca library; VHH gene of phage-54 fused with the GST gene in pGEX-4T-1; also called VVH-54; VVH54; source: expressed from pGEX-4T-1 and purified
binds: [1] | [2] | [3] | [4] | [5] | [6] | [7] | [8] | Calreticulin | [9]

B2: GST-VHH-74 (VHH)
VHH: QVQLVESGGGLVQEGGSLRLSCVVSGSRDSINAMGWYRQAPGKQRELVATVAGVGSTNYAASVKGRFSISMDNAKNTAYLQMNSLKPEDTAVYYCVADLRGSDRWLWAQGTQVTVSA
notes: VHH from a non-immunised alpaca library; VHH gene of phage-74 fused with the GST gene in pGEX-4T-1; also called VVH-74; source: expressed from pGEX-4T-1 and purified
binds: [10] | [11] | [12] | [13] | [14] | [15] | [16] | [17]

— publication PMC9284966, “Construction of a T7 phage display nanobody library for bio-panning and identification of chicken dendritic cell-specific binding nanobodies” (Scientific Reports, 2022)
